# Results: patent US20080213270
# System: Neurotensin (1-13)
substance,measurement,value
"neurolysin (NLN), mouse mast cell-associated",NT degradation by A23187-activated BMCMCs transduced with shRNA (percentage of NT remaining),mMC-CPA- or NL-shRNA-transduced BMCMCs also exhibited significantly reduced ability to degrade NT after activation with A23187 (5 uM)
same,NT degradation by membrane or cytosol preparations of mouse BMCMCs (percentage of NT remaining),"either membrane or cytosol preparations of mouse BMCMCs degraded NT, an ability that was almost completely inhibited by the NLN inhibitor, Pro-Ile (10 mM)"
